Read-outs that look alike come from different tables or passages of the source.
B1: OB1 peptide (peptide)
peptide: KGGGSGGGSHIHDDLLRYYGW
B2: OB2 peptide (peptide)
peptide: KGGGSGGGSGGGSRKEMGQV
B3: OB8 peptide (peptide)
peptide: KRWSRYFWVDMTGTR

Experiments:
[1] = target: recombinant human tumor necrosis factor alpha (rhTNF-α) (human); assay: MST; labelled rhTNF-α (RED-NHS 2nd Generation) at 20 nM, peptide titrated in 16 serial dilutions, PBS, 20 min incubation in the dark, Monolith NT.115 Pico, medium MST power
Chain of recombinant human tumor necrosis factor alpha (rhTNF-α) (human) (P01375 77-233): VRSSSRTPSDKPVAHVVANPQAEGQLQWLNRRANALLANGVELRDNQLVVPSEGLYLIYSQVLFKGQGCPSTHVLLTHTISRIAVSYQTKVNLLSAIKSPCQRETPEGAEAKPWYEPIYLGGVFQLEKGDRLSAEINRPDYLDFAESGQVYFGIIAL

[2] = target: recombinant human tumor necrosis factor alpha (rhTNF-α) (human)
[3] = target: recombinant human tumor necrosis factor alpha (rhTNF-α) (human); remark: listed apart in the source

| Binder | Kd [1] | neutralization of TNF-α-induced cytotoxicity on L929 cells (MTT, 1 ng/mL TNF-α with actinomycin D, peptide 1 pM to 10 μM); blocks TNF-α with TNFR1 [2] | neutralization of TNF-α-induced cytotoxicity on L929 cells (MTT, 1 ng/mL TNF-α with actinomycin D, peptide 1 pM to 10 μM); blocks TNF-α with TNFR1 [3] |
| --- | --- | --- | --- |
| B1 | 300 nM | 4.6 nM | – |
| B2 | 46.7 nM | 81 pM | – |
| B3 | 3890 nM | – | 7.5 µM |

From paper PMC12024540, “Peptide-Based Regulation of TNF-α-Mediated Cytotoxicity” (Biomolecules, 2025)
